B1: ΔRBD2-CDTb (residues 212-751), CDTb construct that lacks the C-terminal receptor binding domain 2 (domain or fragment)
chain: SDWEDEDLDTDNDNIPDSYERNGYTIKDLIAVKWEDSFAEQGYKKYVSNYLESNTAGDPYTDYEKASGSFDKAIKTEARDPLVAAYPIVGVGMEKLIISTNEHASTDQGKTVSRATTNSKTESNTAGVSVNVGYQNGFTANVTTNYSHTTDNSTAVQDSNGESWNTGLSINKGESAYINANVRYYNTGTAPMYKVTPTTNLVLDGDTLSTIKAQENQIGNNLSPGDTYPKKGLSPLALNTMDQFSSRLIPINYDQLKKLDAGKQIKLETTQVSGNFGTKNSSGQIVTEGNSWSDYISQIDSISASIILDTENESYERRVTAKNLQDPEDKTPELTIGEAIEKAFGATKKDGLLYFNDIPIDESCVELIFDDNTANKIKDSLKTLSDKKIYNVKLERGMNILIKTPTYFTNFDDYNNYPSTWSNVNTTNQDGLQGSANKLNGETKIKIPMSELKPYKRYVFSGYSKDPLTSNSIIVKIKAKEEKTDYLVPEQGYTKFSYEFETTEKDSSNIEITLIGSGTTYLDNLSITELNSTPEILDEP
B2: activated CDTb (aCDTb; residues 212-876), cell-binding and pore-forming component of the C. difficile binary toxin (CDT) (domain or fragment)
chain: SDWEDEDLDTDNDNIPDSYERNGYTIKDLIAVKWEDSFAEQGYKKYVSNYLESNTAGDPYTDYEKASGSFDKAIKTEARDPLVAAYPIVGVGMEKLIISTNEHASTDQGKTVSRATTNSKTESNTAGVSVNVGYQNGFTANVTTNYSHTTDNSTAVQDSNGESWNTGLSINKGESAYINANVRYYNTGTAPMYKVTPTTNLVLDGDTLSTIKAQENQIGNNLSPGDTYPKKGLSPLALNTMDQFSSRLIPINYDQLKKLDAGKQIKLETTQVSGNFGTKNSSGQIVTEGNSWSDYISQIDSISASIILDTENESYERRVTAKNLQDPEDKTPELTIGEAIEKAFGATKKDGLLYFNDIPIDESCVELIFDDNTANKIKDSLKTLSDKKIYNVKLERGMNILIKTPTYFTNFDDYNNYPSTWSNVNTTNQDGLQGSANKLNGETKIKIPMSELKPYKRYVFSGYSKDPLTSNSIIVKIKAKEEKTDYLVPEQGYTKFSYEFETTEKDSSNIEITLIGSGTTYLDNLSITELNSTPEILDEPEVKIPTDQEIMDAHKIYFADLNFNPSTGNTYINGMYFAPTQTNKEALDYIQKYRVEATLQYSGFKDIGTKDKEMRNYLGDPNQPKTNYVNLRSYFTGGENIMTYKKLRIYAITPDDRELLVLSVD

Experiments:
[1] = molecular target: the molecule itself; assay: SEC-MALS
[2] = molecular target: the molecule itself; assay: AUC + SEC-MALS

Protein	stoichiometry N [1]	stoichiometry N [2]
B1	7	–
B2	–	14
